# Source: patent US20230220063A1, “IL-1BETA BINDING ANTIBODIES FOR USE IN TREATING CANCER” (NOVARTIS AG, priority 2017, published 2023)
# What was measured:
# [1] = system: MDA-MB-231 Luc2-TdTomato cells; experiment: Spontaneous human breast cancer metastasis to human bone implants in NOD SCID mice; format: in vivo
# Description: To model human breast cancer metastasis to human bone implants two human bone discs were implanted subcutaneously into 10-week old female NOD SCID mice (n=10/group) under isofluorane anaesthetic. Mice received an injection of 0.003 mg vetergesic and Septrin was added to the drinking water for 1 week following bone implantation. Mice were left for 4 weeks before injecting 1×10^5 MDA-MB-231 Luc2-TdTomato, MCF7 Luc2 or T47D Luc2 cells in 20% Martigel/79% PBS/1% […] into the two hind mammary fat pads. Primary tumor growth and development of metastases was monitored weekly using an IVIS […] system (Caliper Life Sciences) following sub-cutaneous injection of 30 mg/ml D-luciferin (Invitrogen). On termination of experiments mammary tumors, circulating tumor cells, serum and bone metastases were resected. RNA was processed for downstream analysis by real time PCR, and cell lysates were taken for protein analysis and whole tissue for histology as previously described (Nutter et al., 2014; Ottewell et al., 2014a).
# (§1) Tumor cells, serum, and bone were subsequently resected for downstream analysis.
# Whole blood was centrifuged at 10,000 g for 5 minutes and the serum removed for ELISA assays. The cell pellet was re-suspended in 5 ml of FSM lysis solution (Sigma-Aldrich, Pool, UK) to lyse red blood cells. Remaining cells were re-pelleted, washed 3x in PBS and re-suspended in a solution of PBS/10% FCS. Samples from 10 mice per group were pooled prior to isolation of TdTomato positive tumor cells using a MoFlow High performance cell sorter (Beckman Coulter, Cambridge UK) with the […] laser line from a Coherent I-90C tenable argon ion (Coherent, Santa Clara, CA). TdTomato fluorescence was detected by a 555LP dichroic long pass and a 580/30 nm band pass filter. Acquisition and analysis of cells was performed using Summit 4.3 software. Following sorting cells were immediately placed in RNA protect cell reagent (Ambion, Paisley, Renfrew, UK) and stored at -80° C. before RNA extraction.
# mouse IL-1β = mouse IL-1β (Mus musculus, UniProt P10749); experiment: Cross-reactivity with mouse IL-1β; format: binding
# Chain of mouse IL-1β (P10749 118-269): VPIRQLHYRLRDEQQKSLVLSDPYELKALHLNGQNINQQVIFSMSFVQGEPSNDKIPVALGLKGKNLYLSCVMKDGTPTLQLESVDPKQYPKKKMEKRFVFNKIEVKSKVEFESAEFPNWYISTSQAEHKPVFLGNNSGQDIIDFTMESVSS
# From the text: A mouse surrogate anti-IL-1β antibody has been developed and is being used to evaluate the effects of blocking IL-1β in mouse models of cancer. This isotype of the surrogate antibody is IgG2a, which is closely related to human IgG1.
# [2] = system: vasculature in trabecular bone; experiment: Blocking IL-1β signalling: blood vessels in the bone microenvironment of mice; format: in vivo
# Description: Vasculature was visualised following CD34 and endomucin immunohistochemistry and the concentration of vascular endothelial growth factor (VEGF) and endothelin-1 in serum and/or bone marrow was determined by ELISA. Effects on bone volume were measured by Micro computed tomography (uCT).
# as §1
# [3] = system: post-myocardial infarction patients with elevated hsCRP
# [4] = system: patients with a prior heart attack and inflammatory atherosclerosis; experiment: CANTOS primary endpoint: major adverse cardiovascular events (MACE); format: in vivo, human; conditions: in combination with standard of care
# From the text: The present invention arose, at least in part, from the analysis of the data generated from the CANTOS trial, which is a randomized, double-blind, placebo-controlled, event-driven trial. […] Participants were followed for incident cancer diagnoses over a median follow-up period of 3.7 years.
# MACE is a composite of cardiovascular death, non-fatal myocardial infarction and non-fatal stroke.
# [5] = murine model of spontaneous human breast cancer metastasis to human bone
substance,measurement,setting,value
"canakinumab: high-affinity, fully human monoclonal antibody of the IgG1/k to interleukin-1β; INN number 8836",mice with metastasis detected in human bone implants,"[1]; 1 mg/kg IL-1Ra daily or 10 mg/kg canakinumab s.c. every 14 days from day 7, control 7 out of 10",1 out of 10
same,"bone metastasis, photons/sec mean values",[1]; Placebo 3.60E+06,6.01E+04 photons/sec
same,size of bone metastases,[1]; compared with control group,smaller than those detected in the control group
same,bone turnover and neovascularisation,"[1]; mouse, in vivo",reduced bone turnover and neovascularisation
same,bone metastasis,[1]; [5],significantly reduced bone metastasis
same,primary tumour growth,[1]; [5],increasing primary tumour growth
same,tumor cells counted in whole blood,[1]; placebo 108 tumor cells/ml,3 tumor cells/ml
same,cross-reactivity with mouse IL-1β,mouse IL-1β,does not cross-react
same,length of new blood vessels,"[2]; 24 hours Ilaris, control 0.09 mm",0.06 mm
same,endothelin 1 and VEGF in the bone marrow (ELISA),[2]; compared with control,reduced concentrations
same,reduction in VEGF concentration,[2]; mice treated for 96 hours,46%
same,reduction in endothelin-1 concentration,[2]; mice treated for 96 hours,47%
same,average length of CD34^+ blood vessels in trabecular bone,[2]; p < 0.01 vs control,reduced the average length of CD34^+ blood vessels
same,"all-cause mortality, HR",[3]; canakinumab groups vs placebo,0.94
same,"non-cardiovascular mortality, HR",[3]; canakinumab groups vs placebo,0.97
same,Anemia (AE reports),[3]; in vivo,275 (1.11)
same,Erythrocytes (at 12 months): High (>6.8),[3]; in vivo,4 (0.07) N (%)
same,Erythrocytes (at 12 months): Low (<3.3),[3]; in vivo,19 ( 0.32) N (%)
same,Erythrocytes (at 12 months): Normal (3.3-6.8),[3]; in vivo,6002 (99.6) N (%)
same,"Leucocytes (at 12 months): High (>15,000)",[3]; in vivo,20 (0.33) N (%)
same,Leucocytes (at 12 months): Low (<3000),[3]; in vivo,27 (0.45) N (%)
same,Leucocytes (at 12 months): Normal (3000-<15000),[3]; in vivo,5978 (99.2) N (%)
same,Leukopenia (AE reports),[3]; in vivo,100 (0.40)
same,Neutropenia (AE reports),[3]; in vivo,25 (0.10)
same,Neutrophils (at 12 months): Grade 1 (1500-<LLN),[3]; in vivo,14 (0.24) N (%)
same,Neutrophils (at 12 months): Grade 2 (1000-<1500),[3]; in vivo,28 (0.47) N (%)
same,Neutrophils (at 12 months): Grade 3 (500-<1000),[3]; in vivo,5 (0.08) N (%)
same,Neutrophils (at 12 months): Grade 4 (<500),[3]; in vivo,0 (0.00) N (%)
same,Neutrophils (at 12 months): Normal N (%),[3]; in vivo,5891 (99.2) N (%)
same,"Platelets (at 12 months): Grade 1 (75,000-<LLN)",[3]; in vivo,782 (13.0) N (%)
same,"Platelets (at 12 months): Grade 2 (50,000-<75,000)",[3]; in vivo,10 (0.17) N (%)
same,"Platelets (at 12 months): Grade 3 (25,000-<50,000)",[3]; in vivo,4 (0.07) N (%)
same,"Platelets (at 12 months): Grade 4 (<25,000)",[3]; in vivo,0 (0.00) N (%)
same,Platelets (at 12 months): Normal N (%),[3]; in vivo,5216 (86.8) N (%)
same,Thrombocytopenia (AE reports),[3]; in vivo,150 (0.60)
same,Serious tuberculosis infections,[3]; similar rates in canakinumab and placebo treated groups,0.06%
same,risk of major adverse cardiovascular events (MACE),[4],reduces the risk of major adverse cardiovascular events
